Reference: patent publication US20260241018A1 (BIOCYTOGEN PHARMACEUTICALS BEIJING, published 2026)

Columns and labels:
[1] = biological target: T1, dog 5T4 expressed on CHO-S cells (CHO-d5T4 cells) (dog); assay: flow cytometry, CHO-d5T4 cells
T1 chain: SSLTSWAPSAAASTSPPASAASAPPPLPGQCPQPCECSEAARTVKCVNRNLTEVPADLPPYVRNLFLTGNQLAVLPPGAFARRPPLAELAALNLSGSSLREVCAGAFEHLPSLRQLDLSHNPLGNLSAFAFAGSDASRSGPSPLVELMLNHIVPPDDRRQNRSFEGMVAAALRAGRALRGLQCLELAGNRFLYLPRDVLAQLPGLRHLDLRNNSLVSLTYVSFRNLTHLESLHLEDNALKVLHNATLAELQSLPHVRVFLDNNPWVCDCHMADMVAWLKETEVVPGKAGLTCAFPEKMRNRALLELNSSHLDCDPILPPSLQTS
Experimental: (§1) CHO-h5T4 cells, CHO-m5T4 cells, CHO-fas5T4 cells or CHO-d5T4 cells were transferred to a 96-well plate at a density of 2×10⁵ cells/well respectively. The anti-5T4 antibodies were added to the 96-well plate, and incubated at 4° C. for 30 min. Then, the cells were incubated with the secondary antibody anti-hlgG-Fc-Alex Flour 647 (RL1-H) (Jackson ImmunoResearch Laboratories, Inc., Cat #: 109-606-170) at 4° C. in the dark for 15 minutes before flow cytometry analysis.

[2] = biological target: T2, human 5T4 expressed on CHO-S cells (CHO-h5T4 cells) (human, UniProt Q13641 32-355); assay: flow cytometry, CHO-h5T4 cells
T2 sequence: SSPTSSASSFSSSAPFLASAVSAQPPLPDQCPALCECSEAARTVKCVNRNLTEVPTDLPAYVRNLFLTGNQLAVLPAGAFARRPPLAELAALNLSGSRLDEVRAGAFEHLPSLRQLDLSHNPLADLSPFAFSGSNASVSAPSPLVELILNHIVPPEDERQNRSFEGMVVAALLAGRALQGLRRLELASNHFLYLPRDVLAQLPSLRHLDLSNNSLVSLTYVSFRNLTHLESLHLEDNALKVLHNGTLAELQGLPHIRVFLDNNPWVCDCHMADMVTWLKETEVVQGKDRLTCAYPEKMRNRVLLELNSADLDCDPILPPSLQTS
Experimental: as §1

[3] = biological target: T3, mouse 5T4 expressed on CHO-S cells (CHO-m5T4 cells) (mouse, UniProt Q9Z0L0 32-361); assay: flow cytometry, CHO-m5T4 cells
T3 sequence: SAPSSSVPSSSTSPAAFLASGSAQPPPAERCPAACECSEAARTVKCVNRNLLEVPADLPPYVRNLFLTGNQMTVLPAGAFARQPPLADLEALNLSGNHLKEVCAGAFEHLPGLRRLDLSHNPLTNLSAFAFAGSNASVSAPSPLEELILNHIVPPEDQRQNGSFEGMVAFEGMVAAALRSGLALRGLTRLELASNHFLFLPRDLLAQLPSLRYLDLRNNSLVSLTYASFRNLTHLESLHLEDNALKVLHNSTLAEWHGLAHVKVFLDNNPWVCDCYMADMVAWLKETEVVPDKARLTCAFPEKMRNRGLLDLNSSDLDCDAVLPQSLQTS
Experimental: as §1

[4] = biological target: T4, His-tagged 5T4 protein of human (h5T4, ACRO Biosystems Inc., Cat #: TPG-H52E5) (human, UniProt Q13641 32-355); assay: SPR (Biacore 8K), antibody captured on Protein A chip, His-tagged 5T4 as analyte
T4 construct: Bought protein; not shown: His tag
T4 sequence (looked up): T2 sequence
Experimental: (§2) Purified anti-5T4 antibodies were diluted to 2 μg/mL and then injected into the Biacore™ 8K biosensor at 10 μL/min for about 50 seconds to achieve a desired protein density (e.g., about 50 response units (RU)). His-tagged 5T4 protein at a concentration of 200 nM was then injected at 30 μL/min for 180 seconds. Dissociation was monitored for 400 seconds. The chip was regenerated after the last injection of each titration with Glycine (pH 2.0), 30 μL/min for 30 seconds. For ISO control, an antibody targeting an irrelevant target protein was used.
(§3) As a person of ordinary skill in the art would understand, the same method with appropriate adjustments for parameters (e.g., antibody concentration) was performed for each tested antibody.

[5] = biological target: T5, His-tagged 5T4 protein of monkey (fas5T4, ACRO Biosystems Inc., Cat #: TPG-C52H3) (monkey, UniProt Q4R8Y9 35-355); assay: as above
T5 construct: Bought protein
T5 sequence: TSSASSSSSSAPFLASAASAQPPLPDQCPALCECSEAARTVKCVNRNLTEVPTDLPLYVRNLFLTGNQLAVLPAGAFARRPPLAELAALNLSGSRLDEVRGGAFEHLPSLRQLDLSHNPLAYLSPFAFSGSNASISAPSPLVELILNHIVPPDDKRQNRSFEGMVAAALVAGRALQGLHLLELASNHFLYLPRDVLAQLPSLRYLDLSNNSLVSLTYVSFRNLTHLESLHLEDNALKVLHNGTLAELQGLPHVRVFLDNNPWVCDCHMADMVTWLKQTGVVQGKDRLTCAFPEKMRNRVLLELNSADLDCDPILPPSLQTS
Experimental: as §2, §3

h5T4-His protein [6] = biological target: T6, h5T4-His protein (human, UniProt Q13641 32-355, limits assumed); assay: epitope binding assay, h5T4-His captured; binder = analyte 2; competitor (analyte 1): 32G8
T6 construct: also called His-tagged human 5T4 protein; not shown: His tag
T6 sequence (looked up): T2 sequence
Experimental: (§4) Epitope binding assays were performed using ForteBio Octet system to determine whether two anti-5T4 antibodies target the same or overlapping epitopes. 1×HBS-EP+buffer (10 mM 4-(2-hydroxyethyl)-1-piperazineethanesulfonic acid (HEPES), 150 mM NaCl, 3 mM ethylenediaminetetraacetic acid (EDTA) and 0.05% P20, pH7.4) diluted from HBS-EP+buffer (10×) was used as the running buffer throughout the experiment. About 50 RU of h5T4-His protein was captured at a flow rate of 10 μL/min, and 200 nM of the tested antibody was injected at a flow rate of 30 μL/min to bind the ligand. Another comparison antibody was injected under the same conditions to determine whether the binding of different antibodies interfered with each other. The binding time was 180 s for each antibody.
(§5) The binding value of each antibody was obtained using Data Analysis HT 12.0. To quantify the interference of one antibody binding to another, a binding ratio was calculated to compare each pair of antibodies. The binding ratio is defined as the binding value of the second antibody (analyte 2), divided by the binding value of the first antibody (analyte 1). […] In general, antibody pairs that interfere with each other have the same or overlapping epitopes.

h5T4-His protein [7] = biological target: T6, h5T4-His protein; assay: epitope binding assay, h5T4-His captured; binder = analyte 2; competitor (analyte 1): 35C6
Experimental: as §4, §5

B1: 32G1 (antibody, V domains shown)
VH: QVQLVQSGGGLVKPGGSLRLSCVASGFTFSDYYMNWVRQAPGKGLEWISYVGTESIYTYYADTVKGRFTISRDNAKNSLYLQMNSLRAEDTALYYCARARDYNLYGMDVWGQGTTVTVSS
VL: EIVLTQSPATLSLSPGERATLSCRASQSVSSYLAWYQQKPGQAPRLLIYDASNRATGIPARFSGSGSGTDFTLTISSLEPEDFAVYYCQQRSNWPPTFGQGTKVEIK
notes: also called anti-5T4 antibody 32G1
Percentage of Positive Cells [1]: 56.3% | Percentage of Positive Cells [2]: 56.5% | Percentage of Positive Cells [3]: 27.1% | Kd [4]: 368 nM | koff [4]: 0.0249 s⁻¹ | kon [4]: 67700 M⁻¹ s⁻¹ | Kd [5]: 70.1 nM | koff [5]: 12.3 s⁻¹ | kon [5]: 1.75e+08 M⁻¹ s⁻¹ | binding ratio (h5T4-His protein [6]): 0.82 | binding ratio (h5T4-His protein [7]): 1.03
